Assay results reported in the supplement of paper PMC10065799, “High-throughput profiling of sequence recognition by tyrosine kinases and SH2 domains using bacterial peptide display” (eLife, 2023).

What was measured:
c-Src = experiment: phosphorylation enrichment, bacterial display (enrichment ratio); higher = better substrate or ligand; peptides without Tyr show the background
EPHB1 = EPHB1 (UniProt P54762); experiment: as above
Hck = Hck (UniProt P08631); experiment: as above
Fes = Fes (UniProt P07332); experiment: as above
FGFR3 = FGFR3 (UniProt P22607); experiment: as above
Fyn = Fyn (UniProt P06241); experiment: as above
FGFR1 = FGFR1 (UniProt P11362); experiment: as above
EPHB2 = EPHB2 (UniProt P29323); experiment: as above
c-Abl (mouse) = experiment: as above
MERTK = MERTK (UniProt Q12866); experiment: as above
AncSZ = experiment: as above
Jak2 = Jak2 (UniProt O60674); experiment: as above
Fer (mouse) = experiment: as above
c-Src SH2 = experiment: SH2 binding enrichment of the phosphorylated peptide, bacterial display (enrichment ratio); higher = better substrate or ligand; peptides without Tyr show the background
SHP2-C SH2 = experiment: as above
Grb2 SH2 = Grb2 SH2 (UniProt P62993); experiment: as above
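Throughout, for SH2 binding enrichment of the phosphorylated peptide, bacterial display: peptide library displayed on the E. coli surface as eCPX fusions, selected cells deep-sequenced, score is each peptide's frequency after selection divided by its frequency in the input.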
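Throughout, for phosphorylation enrichment, bacterial display: 11-residue human phosphosite peptides and single-mutation variants displayed on the E. coli surface, counted by deep sequencing, each peptide's frequency after selection divided by its frequency in the unselected input library; frequency after pTyr selection over input frequency; kinase dosed for 20-30% of maximal phosphorylation in three min.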

Chain of EPHB2 (P29323 whole entry, looked up): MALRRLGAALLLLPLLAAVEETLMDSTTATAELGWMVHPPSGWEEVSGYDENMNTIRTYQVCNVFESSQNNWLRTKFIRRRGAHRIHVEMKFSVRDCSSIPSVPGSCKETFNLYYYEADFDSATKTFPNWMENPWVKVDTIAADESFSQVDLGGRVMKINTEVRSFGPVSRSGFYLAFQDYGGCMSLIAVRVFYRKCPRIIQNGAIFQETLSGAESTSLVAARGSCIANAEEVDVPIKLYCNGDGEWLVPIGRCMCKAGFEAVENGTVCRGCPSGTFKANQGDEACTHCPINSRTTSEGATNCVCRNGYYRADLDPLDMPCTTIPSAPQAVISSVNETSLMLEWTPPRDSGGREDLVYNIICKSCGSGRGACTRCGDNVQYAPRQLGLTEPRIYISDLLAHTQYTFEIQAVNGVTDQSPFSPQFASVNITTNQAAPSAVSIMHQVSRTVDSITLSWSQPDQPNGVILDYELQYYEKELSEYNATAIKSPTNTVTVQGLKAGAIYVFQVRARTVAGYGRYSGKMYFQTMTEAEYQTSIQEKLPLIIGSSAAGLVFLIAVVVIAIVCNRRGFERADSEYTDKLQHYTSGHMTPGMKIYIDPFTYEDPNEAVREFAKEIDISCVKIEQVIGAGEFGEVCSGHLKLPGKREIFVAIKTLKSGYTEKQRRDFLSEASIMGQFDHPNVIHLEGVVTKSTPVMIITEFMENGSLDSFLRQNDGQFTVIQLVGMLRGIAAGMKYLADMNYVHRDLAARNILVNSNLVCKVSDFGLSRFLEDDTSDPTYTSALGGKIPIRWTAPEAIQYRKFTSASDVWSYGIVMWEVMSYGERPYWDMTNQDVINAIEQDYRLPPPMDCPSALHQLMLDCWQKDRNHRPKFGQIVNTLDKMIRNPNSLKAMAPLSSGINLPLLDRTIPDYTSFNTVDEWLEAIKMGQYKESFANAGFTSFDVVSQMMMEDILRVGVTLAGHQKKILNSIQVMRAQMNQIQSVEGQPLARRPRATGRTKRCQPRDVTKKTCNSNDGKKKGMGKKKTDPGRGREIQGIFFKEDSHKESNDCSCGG
Chain of MERTK (Q12866 whole entry, looked up): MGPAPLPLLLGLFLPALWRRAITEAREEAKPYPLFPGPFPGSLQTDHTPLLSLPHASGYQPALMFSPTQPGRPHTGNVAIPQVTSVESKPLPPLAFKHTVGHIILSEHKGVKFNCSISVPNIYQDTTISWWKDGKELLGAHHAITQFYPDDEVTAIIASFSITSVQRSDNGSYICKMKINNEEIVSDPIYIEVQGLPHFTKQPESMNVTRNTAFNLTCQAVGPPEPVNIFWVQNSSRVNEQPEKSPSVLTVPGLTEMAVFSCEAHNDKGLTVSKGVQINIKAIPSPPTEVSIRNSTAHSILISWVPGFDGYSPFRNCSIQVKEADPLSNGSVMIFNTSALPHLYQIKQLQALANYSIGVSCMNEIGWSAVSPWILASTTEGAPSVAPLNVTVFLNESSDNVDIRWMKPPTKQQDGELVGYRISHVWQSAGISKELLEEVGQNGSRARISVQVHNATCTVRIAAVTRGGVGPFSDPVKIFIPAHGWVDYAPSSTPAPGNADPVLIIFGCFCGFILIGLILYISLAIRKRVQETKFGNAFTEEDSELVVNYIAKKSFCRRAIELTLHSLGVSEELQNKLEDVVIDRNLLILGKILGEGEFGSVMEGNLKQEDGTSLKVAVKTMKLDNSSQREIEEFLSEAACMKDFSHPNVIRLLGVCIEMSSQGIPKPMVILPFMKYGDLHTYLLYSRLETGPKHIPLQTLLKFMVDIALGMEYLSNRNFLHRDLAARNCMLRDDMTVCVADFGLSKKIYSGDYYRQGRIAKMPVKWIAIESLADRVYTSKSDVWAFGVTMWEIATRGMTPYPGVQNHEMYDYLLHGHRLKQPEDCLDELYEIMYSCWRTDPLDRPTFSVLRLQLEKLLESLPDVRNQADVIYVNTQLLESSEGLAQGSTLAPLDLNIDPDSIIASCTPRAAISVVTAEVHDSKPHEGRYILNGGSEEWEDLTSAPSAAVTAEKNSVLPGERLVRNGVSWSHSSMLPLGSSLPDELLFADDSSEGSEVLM
Chain of Fyn (P06241 whole entry, looked up): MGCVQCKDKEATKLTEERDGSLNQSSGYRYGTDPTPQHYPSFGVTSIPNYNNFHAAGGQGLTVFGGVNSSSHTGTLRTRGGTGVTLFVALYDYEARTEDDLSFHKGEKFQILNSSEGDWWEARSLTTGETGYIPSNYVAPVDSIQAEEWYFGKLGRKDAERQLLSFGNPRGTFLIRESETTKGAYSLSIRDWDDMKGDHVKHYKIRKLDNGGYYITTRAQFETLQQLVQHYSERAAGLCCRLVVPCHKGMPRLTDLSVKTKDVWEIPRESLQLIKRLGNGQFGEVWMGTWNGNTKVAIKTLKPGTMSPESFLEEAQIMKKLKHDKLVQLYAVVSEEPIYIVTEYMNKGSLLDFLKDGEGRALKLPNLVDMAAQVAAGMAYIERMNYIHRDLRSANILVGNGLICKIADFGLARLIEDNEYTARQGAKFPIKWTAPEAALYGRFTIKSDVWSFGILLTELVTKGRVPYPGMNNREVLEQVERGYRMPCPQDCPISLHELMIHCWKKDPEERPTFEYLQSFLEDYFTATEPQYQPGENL
Chain of FGFR1 (P11362 whole entry, looked up): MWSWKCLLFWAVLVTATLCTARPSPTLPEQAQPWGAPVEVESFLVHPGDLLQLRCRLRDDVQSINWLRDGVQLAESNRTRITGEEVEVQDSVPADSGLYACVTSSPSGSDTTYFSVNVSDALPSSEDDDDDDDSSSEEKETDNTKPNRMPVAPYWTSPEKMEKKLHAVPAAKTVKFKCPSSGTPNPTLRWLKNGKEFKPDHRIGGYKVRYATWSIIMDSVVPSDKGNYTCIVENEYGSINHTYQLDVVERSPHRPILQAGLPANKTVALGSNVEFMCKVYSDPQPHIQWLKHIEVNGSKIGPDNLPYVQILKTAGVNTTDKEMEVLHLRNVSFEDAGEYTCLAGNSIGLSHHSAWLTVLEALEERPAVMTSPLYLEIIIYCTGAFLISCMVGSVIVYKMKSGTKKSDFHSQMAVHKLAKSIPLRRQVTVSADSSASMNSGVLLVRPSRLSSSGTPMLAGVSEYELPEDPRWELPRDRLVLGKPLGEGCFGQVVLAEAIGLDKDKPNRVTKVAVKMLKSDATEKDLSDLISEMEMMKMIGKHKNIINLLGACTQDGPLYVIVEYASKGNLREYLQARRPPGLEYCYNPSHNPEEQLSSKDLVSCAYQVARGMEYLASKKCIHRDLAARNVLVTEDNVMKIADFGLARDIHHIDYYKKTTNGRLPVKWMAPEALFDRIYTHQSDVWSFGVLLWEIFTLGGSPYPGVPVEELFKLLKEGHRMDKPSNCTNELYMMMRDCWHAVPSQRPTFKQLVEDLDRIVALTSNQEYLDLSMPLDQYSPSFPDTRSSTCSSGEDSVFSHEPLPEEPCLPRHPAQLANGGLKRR
Chain of Hck (P08631 whole entry, looked up): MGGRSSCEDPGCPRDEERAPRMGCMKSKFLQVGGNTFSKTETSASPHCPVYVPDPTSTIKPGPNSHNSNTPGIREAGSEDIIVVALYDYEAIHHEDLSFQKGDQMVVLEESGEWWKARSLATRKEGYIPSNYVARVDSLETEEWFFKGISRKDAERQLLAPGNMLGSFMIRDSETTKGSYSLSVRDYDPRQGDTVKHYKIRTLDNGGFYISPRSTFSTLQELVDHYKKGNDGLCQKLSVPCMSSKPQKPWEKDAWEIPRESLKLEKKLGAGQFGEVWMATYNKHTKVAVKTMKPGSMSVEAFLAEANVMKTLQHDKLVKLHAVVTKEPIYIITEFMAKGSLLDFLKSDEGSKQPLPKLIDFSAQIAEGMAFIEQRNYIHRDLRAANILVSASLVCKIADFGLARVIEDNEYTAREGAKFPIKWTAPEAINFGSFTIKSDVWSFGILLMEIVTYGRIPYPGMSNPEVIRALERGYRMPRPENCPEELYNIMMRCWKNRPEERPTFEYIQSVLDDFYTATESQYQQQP
Chain of EPHB1 (P54762 whole entry, looked up): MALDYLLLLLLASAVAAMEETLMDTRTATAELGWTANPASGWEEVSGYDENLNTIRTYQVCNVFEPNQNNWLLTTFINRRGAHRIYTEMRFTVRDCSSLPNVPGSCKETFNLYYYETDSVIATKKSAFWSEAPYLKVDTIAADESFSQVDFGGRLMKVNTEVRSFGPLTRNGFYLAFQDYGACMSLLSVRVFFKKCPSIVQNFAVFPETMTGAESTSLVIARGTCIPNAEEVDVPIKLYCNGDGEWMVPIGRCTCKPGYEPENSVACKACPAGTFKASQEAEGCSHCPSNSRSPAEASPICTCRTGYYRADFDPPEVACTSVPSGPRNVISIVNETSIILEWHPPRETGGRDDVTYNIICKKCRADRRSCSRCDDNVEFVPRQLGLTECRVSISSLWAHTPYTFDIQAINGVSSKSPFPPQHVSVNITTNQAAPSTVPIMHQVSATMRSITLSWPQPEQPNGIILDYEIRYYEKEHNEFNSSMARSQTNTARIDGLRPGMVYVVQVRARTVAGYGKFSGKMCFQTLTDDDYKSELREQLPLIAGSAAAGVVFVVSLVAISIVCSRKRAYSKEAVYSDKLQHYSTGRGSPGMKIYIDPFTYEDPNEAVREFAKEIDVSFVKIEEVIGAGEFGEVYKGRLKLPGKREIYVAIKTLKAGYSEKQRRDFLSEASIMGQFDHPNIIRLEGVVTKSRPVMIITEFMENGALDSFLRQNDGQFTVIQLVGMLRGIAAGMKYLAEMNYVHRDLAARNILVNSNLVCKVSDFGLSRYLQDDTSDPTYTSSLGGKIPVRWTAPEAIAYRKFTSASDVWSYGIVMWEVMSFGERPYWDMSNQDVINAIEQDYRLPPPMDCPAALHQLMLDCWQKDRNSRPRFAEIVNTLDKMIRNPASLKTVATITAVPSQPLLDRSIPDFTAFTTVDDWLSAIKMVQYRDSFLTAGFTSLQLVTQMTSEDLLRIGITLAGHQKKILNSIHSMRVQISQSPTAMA

Row | Sequence | phosphorylation enrichment (c-Src) | phosphorylation enrichment (EPHB1) | phosphorylation enrichment (Hck) | phosphorylation enrichment (Fes) | phosphorylation enrichment (FGFR3) | phosphorylation enrichment (Fyn) | phosphorylation enrichment (FGFR1) | phosphorylation enrichment (EPHB2) | phosphorylation enrichment (c-Abl (mouse)) | phosphorylation enrichment (MERTK) | phosphorylation enrichment (AncSZ) | phosphorylation enrichment (Jak2) | phosphorylation enrichment (Fer (mouse)) | SH2 binding enrichment (c-Src SH2) | SH2 binding enrichment (SHP2-C SH2) | SH2 binding enrichment (Grb2 SH2)
1 | EASEQHLTKAS [NRCAM_Y739_Y739H] | 0.396 | 0.38 | 0.447 | 0.859 | 0.551 | 0.48 | 0.433 | 0.496 | 0.663 | 0.343 | 0.887 | 0.692 | 0.497 | 0.53 | 0.598 | 0.903
2 | EDGCIYPGTIA [SMN1_Y109_A111G] | 0.567 | 0.7 | 0.552 | 1.25 | 0.856 | 0.595 | 0.553 | 0.613 | 0.868 | 0.529 | 0.947 | 1.04 | 0.555 | 0.619 | 0.699 | 0.915
3 | EEDPEYKKKFR [FAM161A_Y278] | 0.642 | 0.427 | 0.487 | 0.99 | 0.544 | 0.61 | 0.66 | 0.441 | 0.647 | 0.466 | 1.1 | 1.01 | 0.608 | 0.751 | 0.904 | 1.14
4 | EEGNPSFSSAR [MCCC2_Y520_Y520S_YF] | 0.433 | 0.418 | 0.395 | 0.876 | 0.623 | 0.42 | 0.388 | 0.467 | 0.681 | 0.459 | 0.682 | 0.826 | 0.426 | 0.462 | 0.574 | 0.75
5 | EEGNPYFSGAR [MCCC2_Y520_S523G_YF] | 1.37 | 0.516 | 0.864 | 0.945 | 0.686 | 0.637 | 0.521 | 0.462 | 0.687 | 0.444 | 0.938 | 0.802 | 0.347 | 0.536 | 0.667 | 0.868
6 | EEGRVYVYRLS [ITGAE_Y549] | 0.698 | 0.595 | 0.548 | 1.11 | 0.76 | 0.616 | 0.496 | 0.504 | 0.713 | 0.379 | 0.904 | 0.997 | 0.505 | 0.66 | 2.07 | 0.934
7 | EFISENCGEII [EZH2_Y641_Y641N] | 0.423 | 0.585 | 0.495 | 1.1 | 0.706 | 0.581 | 0.487 | 0.57 | 0.71 | 0.437 | 1.31 | 1.13 | 0.478 | 0.62 | 0.714 | 1.05
8 | EFKKHYGFSLF [ANXA3_Y295_YF] | 0.46 | 0.574 | 0.507 | 1.01 | 0.721 | 0.413 | 0.461 | 0.509 | 0.642 | 0.416 | 0.949 | 0.751 | 0.561 | 0.622 | 0.749 | 0.815
9 | EFLHKYKGFKI [SYNE1_Y6953_Q6951H_YF] | 0.508 | 0.458 | 0.435 | 0.765 | 0.545 | 0.318 | 0.397 | 0.264 | 0.697 | 0.431 | 0.857 | 0.667 | 0.379 | 0.34 | 0.998 | 0.832
10 | EHTTLYSDNST [KANSL1_Y223_N225D] | 0.497 | 0.45 | 0.561 | 0.801 | 0.591 | 0.407 | 0.475 | 0.433 | 0.512 | 0.443 | 0.697 | 0.654 | 0.661 | 0.585 | 0.723 | 0.949
11 | EIIPFYGMSSY [FNDC3B_Y175_T179S] | 0.616 | 0.6 | 0.967 | 0.914 | 0.672 | 0.777 | 0.489 | 0.77 | 0.587 | 0.728 | 0.877 | 0.748 | 0.933 | 6.51 | 0.828 | 0.855
12 | EIRTQDEAMAS [GFAP_Y242_Y242D] | 0.408 | 0.515 | 0.443 | 0.755 | 0.57 | 0.43 | 0.498 | 0.42 | 0.489 | 0.457 | 0.688 | 0.945 | 0.353 | 0.575 | 0.772 | 0.811
13 | EKKKFYDTKIE [CASP5_Y104_YF] | 0.6 | 0.396 | 0.503 | 0.933 | 0.567 | 0.353 | 0.342 | 0.397 | 0.653 | 0.428 | 0.772 | 0.883 | 0.446 | 0.427 | 0.437 | 0.636
14 | EKKQTYGSCRK [LACTB_Y473_R469K] | 0.43 | 0.415 | 0.391 | 0.685 | 0.488 | 0.37 | 0.395 | 0.356 | 0.581 | 0.366 | 0.533 | 0.484 | 0.351 | 0.867 | 0.838 | 1.23
15 | EKLQKYFRQNP [EHHADH_Y682_YF] | 0.408 | 0.375 | 0.351 | 0.742 | 0.472 | 0.431 | 0.358 | 0.35 | 0.942 | 0.354 | 0.802 | 0.549 | 0.365 | 0.355 | 0.761 | 0.871
16 | EKMWSYTKSAE [GRIA3_Y705_M706T] | 0.464 | 0.426 | 0.451 | 0.748 | 0.529 | 0.425 | 0.419 | 0.487 | 0.68 | 0.44 | 0.658 | 0.592 | 0.411 | 0.473 | 0.937 | 0.869
17 | EKQLLYSENKT [FRK_Y132] | 0.616 | 0.528 | 0.85 | 0.919 | 0.599 | 0.465 | 0.456 | 0.652 | 0.563 | 0.766 | 0.732 | 0.638 | 1.19 | 0.55 | 0.674 | 0.976

Row | Sequence | phosphorylation enrichment (c-Src) | phosphorylation enrichment (EPHB1) | phosphorylation enrichment (Hck) | phosphorylation enrichment (Fes) | phosphorylation enrichment (FGFR3) | phosphorylation enrichment (Fyn) | phosphorylation enrichment (FGFR1) | phosphorylation enrichment (EPHB2) | phosphorylation enrichment (c-Abl (mouse)) | phosphorylation enrichment (MERTK) | phosphorylation enrichment (AncSZ) | phosphorylation enrichment (Jak2) | phosphorylation enrichment (Fer (mouse)) | SH2 binding enrichment (c-Src SH2) | SH2 binding enrichment (SHP2-C SH2) | SH2 binding enrichment (Grb2 SH2)
18 | ELAKFYKLHHI [AK7_Y391_N389K_YF] | 0.505 | 0.547 | 0.501 | 0.762 | 0.531 | 0.566 | 0.453 | 0.452 | 0.621 | 0.536 | 0.65 | 0.645 | 0.462 | 0.414 | 0.747 | 0.646
19 | ENFDDYMKDVG [FABP4_Y20_E23D] | 0.43 | 0.635 | 0.554 | 1.12 | 0.764 | 0.564 | 0.546 | 0.663 | 1.13 | 0.52 | 1.17 | 1.24 | 0.443 | 0.428 | 0.729 | 0.832
20 | ENGPYYASYPP [GDAP2_Y488_T489A] | 5.28 | 1.64 | 3.82 | 0.735 | 2.01 | 6.13 | 2.69 | 4.76 | 3.72 | 6.92 | 1.09 | 0.662 | 1.29 | 0.632 | 0.773 | 0.729
21 | ENPAKYDDIKK [GAPDH_Y255_K251N] | 0.485 | 0.608 | 0.412 | 1.04 | 0.69 | 0.506 | 0.519 | 0.582 | 0.579 | 0.437 | 0.915 | 0.829 | 0.453 | 1.39 | 0.888 | 0.702
22 | ENRKYYMDLKE [PURA_Y156] | 0.331 | 0.563 | 0.543 | 0.912 | 0.573 | 0.418 | 0.474 | 0.473 | 0.588 | 0.466 | 0.733 | 0.734 | 0.445 | 0.874 | 0.657 | 0.761
23 | EPDSLYGCGRG [ATM_Y2019_G2023R] | 2.52 | 0.534 | 4.04 | 0.926 | 0.576 | 2.05 | 0.399 | 0.45 | 0.885 | 0.419 | 0.933 | 0.858 | 0.574 | 0.559 | 0.886 | 0.93
24 | EQFELYCEMGS [CBL_Y371_YF] | 1.49 | 3.34 | 2.27 | 1.68 | 1.54 | 1.43 | 1.26 | 2.66 | 1.02 | 1.58 | 1.95 | 1.39 | 1 | 0.46 | 0.638 | 0.934
25 | EREFKYGAHNF [OAT_Y50_YF] | 0.388 | 0.392 | 0.386 | 0.608 | 0.482 | 0.442 | 0.368 | 0.375 | 0.401 | 0.359 | 0.516 | 0.483 | 0.36 | 0.399 | 0.785 | 0.893
26 | ERPIRYLNHQL [CEP152_Y268_Q265P] | 0.46 | 0.421 | 0.393 | 0.591 | 0.424 | 0.457 | 0.383 | 0.409 | 0.552 | 0.497 | 0.504 | 0.476 | 0.417 | 0.488 | 0.627 | 1.18
27 | ESDFPYSSSFE [SRPK2_Y427_T426P_YF] | 0.823 | 0.437 | 0.47 | 1.1 | 0.692 | 0.511 | 0.619 | 0.502 | 0.642 | 0.462 | 1.1 | 0.942 | 0.531 | 0.485 | 0.543 | 0.738
28 | ESMLRYEVFGG [STOX1_Y607_YF] | 1.04 | 0.631 | 0.7 | 0.993 | 0.641 | 0.592 | 0.415 | 0.471 | 0.956 | 1.41 | 1.12 | 1.09 | 0.386 | 3.51 | 0.58 | 0.76
29 | ESMNIYLQTSP [NAT1_Y208_T207I] | 1.06 | 0.752 | 1.05 | 1.05 | 0.87 | 0.847 | 0.674 | 0.697 | 0.812 | 0.618 | 1.21 | 1.17 | 0.635 | 0.441 | 0.455 | 0.829
30 | ETCLAYMEKRI [TEKT1_Y118_R119M] | 0.511 | 0.591 | 0.56 | 1.13 | 0.814 | 0.517 | 0.48 | 0.617 | 0.818 | 0.406 | 1.2 | 1.17 | 0.691 | 0.445 | 0.775 | 0.67
31 | ETMNKYDLSGR [MYEF2_Y164] | 0.398 | 0.383 | 0.448 | 0.696 | 0.498 | 0.434 | 0.421 | 0.391 | 0.507 | 0.633 | 0.667 | 0.731 | 0.422 | 0.44 | 0.639 | 0.912
32 | EVESPYEVHDF [GIGYF2_Y1168_YF] | 5.45 | 0.837 | 1.44 | 1.3 | 0.81 | 5.32 | 0.593 | 0.922 | 0.825 | 0.974 | 1.93 | 1.23 | 12.3 | 0.486 | 0.832 | 0.785
33 | EVKAQYEDIAQ [KRT1_Y358] | 0.516 | 0.546 | 0.69 | 1.26 | 0.748 | 0.556 | 0.593 | 0.539 | 0.774 | 0.435 | 1.22 | 1.06 | 0.761 | 11.6 | 0.64 | 1.15
